From paper PMC13438699 (Nature Communications, 2026)

B1: HB31 wild type (WT) Fab (Fab, V domains shown)
VH: EVQLLESGGGLVQPGGSLRLSCTVSGFTSSNYDMSWVRQAPGKGLEWVSGISGTGRDTYYADSVKGRFTISRDNSKNTLSLQMNSLRADDTAVYFCARDRPVLRYFDWQPYGLDVWGKGTTVTVSS
VL: QSALTQPPSASGSPGQSVTISCTGTSSDVGGYNYVSWYQQYPSKAPKLMIYEVSKRPSGVPDRFSGSKSGNTASLTVSGLQAEDEADYYCNSYAGSNLYVFGTGTKVTVL
notes: also called HB31 WT Fab; HB31 Fab; source: Expi293F, transiently co-transfected, purified (CaptureSelect CH1-XL)
B2: HB31 wild type (WT) IgG (antibody, V domains shown)
VH: B1 VH
VL: B1 VL
notes: copies: 2 + 2

Biological target: H1 stem (#4900), HA stem construct derived from the A/Brisbane/59/2007 (H1N1) HA (Designed HA stem #4900 from influenza A …, stabilised)
Assay: BLI
Settings: both partners purified

Row | Binder | Kd [nM]
1 | B1 | 4.3
2 | B2 | 2.7
